Laboratory results: US20250381307A1, “RETRO-AAV AND USE IN TREATING NEURODEGENERATIVE DISEASES” (priority 2023, published 2025)

Tests used:
[1] = tested on: MSNs in nucleus accumbens; assay: Retrograde labeling of accumbal MSNs after delivery into ventral pallidum or lateral hypothalamus; assay type: in vivo, mouse; conditions: stereotaxic delivery into ventral pallidum or lateral hypothalamus
[2] = tested on: striatonigral projection neurons (striatal MSNs); assay: Retrograde labeling of striatal MSNs after AAV injection into the SNr (EYFP+ cell counting); assay type: in vivo, mice; conditions: for labeled striatonigral projection neurons (FIG. 2C): wild type mice, n=3, mean±SEM
From the text: (§1) Brain profiles of two epigenetic marks for enhancers and promoters, monomethylation of histone H3 lysine 4 (H3K4me1) and acetylation of histone H3 lysine 27 (H3K27ac) were checked and approximately 2 kilobase-long sequences around the transcriptional start site (TSS) that have high levels of H3K4me1 and/or H3K27ac were identified in mouse brain. Homologous sequences at equivalent positions of the human genome were then cloned onto an AAV backbone, and the activity of the homologous sequences in directing reporter expression was tested in mice after injections of AAVs into the SNr (FIG. 3A-C, TABLE 3).
(§2) Mice were anesthetized with sodium pentobarbital (Nembutal; 80 mg/kg, i.p.), and then placed into a stereotaxic device (KOPF). Eye cream was applied on both corneas to avoid dehydration. The skull above the targeted areas was thinned with a dental drill and carefully removed. Injections were conducted with a 10 μL syringe connected to a 33-Gauge needle (Neuros; Hamilton), using a microsyringe pump (Legato 130, KD Scientific). A total volume of 200 nL virus was injected into the SNr at a speed of 20 nL/min. The coordinates for the SNr were 3.4 mm posterior, 1.3 mm lateral, 4.8 mm ventral to the bregma.
(§3) Images were acquired using a confocal microscope (Carl Zeiss, LSM880) and an Axiolmager.Z1 microscope with apotome (Carl Zeiss). Brain structures were identified microscopically and in digital photos using a mouse brain atlas. To analyze the number of EYFP+ cells in the striatum, slices from rostral to caudal striatum were used. Every sixth section was analyzed, and numbers of EYFP+ cells were multiplied by six to acquire the approximate total number and mean number of cells per animal. Images were processed using ImageJ (NIH, USA), and final quantifications were independently performed manually by two blinded experimenters.

substantia nigra = assay: Promoter activity level in substantia nigra after AAV injection into the SNr; assay type: in vivo, mice; conditions: numbers of YFP-expressing neurons per animal
From the text: as §1, §2, §3

B1: AAV8R: AAV8 capsid with N385D, insertion of SEQ ID NO: 31 at position 588 and TS to IN mutation (SEQ ID NO: 1) (protein)
chain: MAADGYLPDWLEDNLSEGIREWWALKPGAPKPKANQQKQDDGRGLVLPGYKYLGPFNGLDKGEPVNAADAAALEHDKAYDQQLQAGDNPYLRYNHADAEFQERLQEDTSFGGNLGRAVFQAKKRVLEPLGLVEEGAKTAPGKKRPVEPSPQRSPDSSTGIGKKGQQPARKRLNFGQTGDSESVPDPQPLGEPPAAPSGVGPNTMAAGGGAPMADNNEGADGVGSSSGNWHCDSTWLGDRVITTSTRTWALPTYNNHLYKQISNGTSGGATNDNTYFGYSTPWGYFDFNRFHCHFSPRDWQRLINNNWGFRPKRLSFKLFNIQVKEVTQNEGTKTIANNLTSTIQVFTDSEYQLPYVLGSAHQGCLPPFPADVFMIPQYGYLTLNDGSQAVGRSSFYCLEYFPSQMLRTGNNFQFTYTFEDVPFHSSYAHSQSLDRLMNPLIDQYLYYLSRTQTTGGTANTQTLGFSQGGPNTMANQAKNWLPGPCYRQQRVSTTTGQNNNSNFAWTAGTKYHLNGRNSLANPGIAMATHKDDEERFFPSNGILIFGKQNAARDNADYSDVMLTSEEEIKTTNPVATEEYGIVADNLQRGNLADQDYTKTARQAATADVNSQGALPGMVWQNRDVYLQGPIWAKIPHTDGNFHPSPLMGGFGLKHPPPQILIKNTPVPADPPTTFNQSKLNSFITQYSTGQVSVEIEWELQKENSKRWNPEIQYTSNYYKSINVDFAVNTEGVYSEPRPIGTRYLTRNL
Q: How did the “labeling of MSNs in nucleus accumbens” value [1] turn out when B1 was run?
A: Its value is “robust labeling”.

Q: And the “labeled striatonigral projection neurons (FIG. 2C)” value ([2]; SNr injection)?
A: Its value is 10092±463.9.

B2: AAV8R12: AAV8R capsid mutant V183E + N411S (SEQ ID NO: 13; SEQ ID NO: 59) (protein)
chain: MAADGYLPDWLEDNLSEGIREWWALKPGAPKPKANQQKQDDGRGLVLPGYKYLGPFNGLDKGEPVNAADAAALEHDKAYDQQLQAGDNPYLRYNHADAEFQERLQEDTSFGGNLGRAVFQAKKRVLEPLGLVEEGAKTAPGKKRPVEPSPQRSPDSSTGIGKKGQQPARKRLNFGQTGDSESEPDPQPLGEPPAAPSGVGPNTMAAGGGAPMADNNEGADGVGSSSGNWHCDSTWLGDRVITTSTRTWALPTYNNHLYKQISNGTSGGATNDNTYFGYSTPWGYFDFNRFHCHFSPRDWQRLINNNWGFRPKRLSFKLFNIQVKEVTQNEGTKTIANNLTSTIQVFTDSEYQLPYVLGSAHQGCLPPFPADVFMIPQYGYLTLNDGSQAVGRSSFYCLEYFPSQMLRTGNSFQFTYTFEDVPFHSSYAHSQSLDRLMNPLIDQYLYYLSRTQTTGGTANTQTLGFSQGGPNTMANQAKNWLPGPCYRQQRVSTTTGQNNNSNFAWTAGTKYHLNGRNSLANPGIAMATHKDDEERFFPSNGILIFGKQNAARDNADYSDVMLTSEEEIKTTNPVATEEYGIVADNLQRGNLADQDYTKTARQAATADVNSQGALPGMVWQNRDVYLQGPIWAKIPHTDGNFHPSPLMGGFGLKHPPPQILIKNTPVPADPPTTFNQSKLNSFITQYSTGQVSVEIEWELQKENSKRWNPEIQYTSNYYKSINVDFAVNTEGVYSEPRPIGTRYLTRN
Q: Which “labeling of MSNs in nucleus accumbens” value [1] does the source give for B2 here?
A: Its value is “robust labeling”.

Q: And the “Labeling Efficiency in Striatonigral Pathway” value ([2]; AAV8R capsid mutants, numbers of labeled neurons per animal)?
A: The value was “+++ (10k-25k)”.

Q: What about the “labeled striatonigral projection neurons (FIG. 2C)” value ([2]; SNr injection) of the same molecule?
A: Its value is 16026±1654.

Q: What about the “times EYFP positive / labeled MSNs compared to rAAV2-retro” value ([2]; after nigral delivery, hSyn-EYFP) of the same molecule?
A: Its value is 7.72±0.78 times.

B3: G88P7: 896-bp shortened derivative of G88P2 promoter (SEQ ID NO: 46) (nucleic acid, listed as Homo sapiens)
DNA: ATGCCAAGCGTGGAAAGGCTGTCTTTTCCCTGGATGATGTATAACTAAGCAGGAGAGAGCTTCGAGTGGGTTCACCACATCAGCCACCACTCCTGCTTCTGAGCACAGGGTGCTCTCCTCTTGAGCTCAGCTTCTGCTTTTGCAGCCAAGCATTCTTGCTGCTGCTGCCTGCCTGCCCACCCGCCTGGGCTTGCAGCCCGCCACTTTACTTTCTCCAGCCCTGATACCAGCTGAGAAGTCTCCCTGCAGCTGCTAGTTCCTGCCCAGGACCATGTGTGTGGATGCTGCTTGGGAGAAGCGGGCACTTGCTCCTGGCACTGATCCCAGCTGAGTTTCTCCTGTTGATTTCTGGACCACTGATGCTGTTGCTGAGGAGGTATTTCCCGGCATCCCTCCCCCTGAGACACCGGCTAAGGACCAGCCTAAACGCAAGGTAACCTTCACCTCTTTCCCATGGGATTTTCCCCAGCTGGGATATCTCTGCTTTCTCCTGGAACTAGGTCCTCCAGCTGGCAACATATCTCTCTCTCTCTCTCTCTCTCTCTCTCTCTCTCTCTCTCTGTGTGTGTGTGTGTGTGTTGGGGGAGAAGAGGAGACTGTTTTAGGTATTGCTCTGTCCTAGGGCTTCCCCGATACCTGCTGAATCCAATGCAAAGTGGCCTTTCCCCTGGCTCTGGAGACATTTCCGAGGCAGGCACCTGTCATCTGCCACCCCCGTCCTCCTCCTCGAGCTCCCTTTCTCCCCCTCCCCCAGCCCATTATTCTGCTTCAGCCTTTTGTGTCAGTGGCAGAGGGCTGAAGGGATGTCTTTGCCCTTCTGGCAGGCAGGACAGTGTCAGGATGGACCGCGCTGCCAGAAGCCGACGCTAGCGAGGGAGGTGTGAAGAGTTGGCCAG
Q: B3 was tested. Which “Activity Level SN” value (substantia nigra) did it give?
A: Its value is “+ (<5k)”.

Q: What about the “reporter-labeled MSNs by promoter (FIG. 4B)” value ([2]; SNr injection, n=3 mice, mean±SEM) of the same molecule?
A: The value was 39460±7281.

Q: What about the “Activity Level STR” value ([2]; striatum, numbers of YFP-expressing neurons per animal) of the same molecule?
A: Its value is “++++ (>25k)”.

Q: What about the “labeled MSNs per mouse” value ([2]; viruses expressing EYFP, injection into the SNr (FIG. 4B)) of the same molecule?
A: The value was 3.95±0.73 ×104 MSNs per mouse.
